Measurements reported in the supplement of paper PMC9170038.

System: MS2 coat protein
Test: apparent KD of MS2 coat protein; designed switch direction (-1 OFF switch, 1 ON switch): 1; higher = weaker reporter binding
Outline: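 The apparent KD reported per design is the median over clusters of curve fits to normalised cluster fluorescence. The RNA switches were transcribed on Illumina chips by stalled E. coli RNA polymerase. SNAP-549-labelled MS2 coat protein was titrated from 0.7 or 1.5 nM, doubling up to 3 µM, in Tris-HCl pH 7.5 buffer containing KCl, MgCl2, BSA, DTT, tRNA and Tween-20, with no input, 200 uM small-molecule ligand, or an oligonucleotide input.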

[1] = Eterna round: R95, input ligand: FMN 200 uM
[2] = Eterna round: R95, input ligand: microRNA oligo, concentration not stated
[3] = Eterna round: R95, input ligand: none
[4] = input ligand: microRNA oligo, concentration not stated

| Sequence | apparent KD of MS2 coat protein [1] | apparent KD of MS2 coat protein [2] | apparent KD of MS2 coat protein [3] | apparent KD of MS2 coat protein (input ligand: FMN 200 uM) | apparent KD of MS2 coat protein [4] | apparent KD of MS2 coat protein (input ligand: none) |
| --- | --- | --- | --- | --- | --- | --- |
| AUAAAACAUGAGGAUCACCCAUGUCAACAUAGUCGAGGAUAUGGGCAAAUAAAAUAAGAACCAGAAGGCGAAUAAU [salish99_ss1_r3_040] (puzzle: Same State 1) | 50.5 nM | 714 nM | 510 nM | – | – | – |
| AGUCCUGCCUGAGCAGGACAAAAGCAUGUACAUGAGGAUCACCCAUGUCAUGUACAAGCUUUUUGCUCGUCUUAAUA [Mat - hsa-mir-208a - Mod of JL - D41] (Eterna round: R96, puzzle: Sensor for hsa-mir-208a) | – | – | – | 624 nM | 13.7 nM | 735 nM |
| AGCUAUUAAUCAGGAUAUAGUGACAUGAGGAUCACCCAUGUAUUGAUGAUUAAAUGUGGUCACUACUAGAAGGGAUUACUAACA [SameState NG2 #49] (Eterna round: R96, puzzle: Same State NG 2) | – | – | – | 37 nM | 51.4 nM | 67.1 nM |
| UGGCUCAGAGCAGGAUAUACGUGGUCACAUGAGGAUCACCCAUGUCUCGAGCUUCGGCUCGAGGCGUAGAAGGGCUCUGAGCCU [SSNG2/6-B3] (Eterna round: R96, puzzle: Same State NG 2) | – | – | – | 118 nM | 131 nM | 258 nM |
| CGCCAGAGAGCAGGAUAUGGGCCACGGCCUAAGGGCUGUGGACUCACAUGAGGAUCACCCAUGUCCCAGAAGGGCUCCUGGCUA [Usarbebi] (Eterna round: R96, puzzle: Same State NG 2) | – | – | – | 18.1 nM | 128 nM | 174 nM |
| UUCCCAGCGGGAGGAUAUGGUGCCUUGUUGGUGCUAGAAGGUCCAACAUGAGGAUCACCCAUGUGGGAGUGGUCGAGAGACCUC [SS NG10LRO10] (Eterna round: R96, puzzle: Same State NG 1) | – | – | – | 307 nM | 238 nM | 427 nM |
| UUUGCAUGACGAGGAUAUCAUUUAUAUCUUGAUUGAGAAGGCGUUCUUUUUUUUACCUAACAUGAGGAUCACCCAUGUGACAGU [JR_SSNG1_Sub050] (Eterna round: R96, puzzle: Same State NG 1) | – | – | – | 14.1 nM | 13.4 nM | 16.1 nM |
| UAAUUAAGUCAAGGAUAUCACGUCGAUUAGACGUGAGAAGGUGACCAAUACAUGAGGAUCACCCAUGUAAUACAUGAAUAAUUA [SSNG1/12-B2] (Eterna round: R96, puzzle: Same State NG 1) | – | – | – | 22.7 nM | 53.2 nM | 56.4 nM |
| GGAGAACAUGAGGAUCACCCAUGUAGGCGUUAGCUAGGAUAUGCGGGAAGGAAGAGAGAAGCAGAAGGAGUAGGUA [JR_SS1_Sub031] (puzzle: Same State 1) | 39.6 nM | 64.4 nM | 80 nM | – | – | – |
| AUGUAUCGCCUCGAGGAUAUCCUGUCAUGCACAUGAGGAUCACCCAUGUAAGAGCGAGUUUAAUGGGAGAAGGCGAGUUCUCGGU [JR_SS002_Sub1707] (Eterna round: R96, puzzle: Same State 2) | – | – | – | 46.9 nM | 78.5 nM | 106 nM |
| AUAAAACACAUGAGGAUCACCCAUGUGGCCGAAGAAGGCACACAGGAUAUCAAGCAACUAAAGCUUGAGAAGGGUGAGACAAAA [Quistera] (Eterna round: R96, puzzle: Same State NG 3) | – | – | – | 494 nM | 30.7 nM | 92.3 nM |
| UUGUUUUGAAAUUUACAUGAGGAUCACCCAUGUCGUGAGACAGAGGAUAUACAGGAAUGUAGGUAGUAGAAGGCUGUUUUGUGU [JR_SSNG3_Sub100] (Eterna round: R96, puzzle: Same State NG 3) | – | – | – | 49.5 nM | 97.6 nM | 123 nM |
| AGCUAUCGAAAACGAUAGCAAAAGCAUGUACAUGAGGAUCACCCAUGUCAUGUACAGGCUUUUUGCUCGUCUUAAAA [Zipper 23 - 8] (puzzle: Sensor for hsa-mir-208a) | 26.4 nM | 18.3 nM | 124 nM | – | – | – |
| AACUAUCUAUCUCAGGAUAUCAUGUCAAAGACAUGAGGAUCACCCAUGUACCAGGAAACUGGUUAUGAGAAGGGAGAUAGAUAGA [Mat - Same State 2 - Mod - D38] (puzzle: Same State 2) | 92.5 nM | 87.7 nM | 97 nM | – | – | – |
| GUGGUCAGACAUGAGGAUCACCCAUGUGGAAUAAAUAAGGCAUAGGAUAUGAAAUAUAGGAUAUAUCAGAAGGAUGGGUUGGUG (Eterna round: R96, puzzle: Same State NG 3) | – | – | – | – | 131 nM | – |
| UAGUACAUGCUUUUUGCCCGUCUUAGAUAACAUGAGGAUCACCCAUGUAAGGUGAAAGUUAUAUAGUGGAGGAAGAU [JR_SHM208A_Sub055] (puzzle: Sensor for hsa-mir-208a) | 107 nM | 360 nM | 107 nM | – | – | – |

| Sequence | apparent KD of MS2 coat protein [1] | apparent KD of MS2 coat protein [2] | apparent KD of MS2 coat protein [3] | apparent KD of MS2 coat protein (input ligand: FMN 200 uM) | apparent KD of MS2 coat protein [4] | apparent KD of MS2 coat protein (input ligand: none) |
| --- | --- | --- | --- | --- | --- | --- |
| GGAGAGAAGUGAGGAUAUGCAUGGAAGACACAUGAGGAUCACCCAUGUGGGAGGGAGACCGGGAGGUAGAAGGCACUGGGAAGA [AK SSNG2-V2-25.1] (Eterna round: R96, puzzle: Same State NG 2) | – | – | – | 425 nM | 42.3 nM | 74.2 nM |
| GUACAACAUGAGGAUCACCCAUGUAUAUAUAUACGAGGAUAUGCAUGUACGAAAGUAUAUGCAGAAGGCGUUGUAC [Pin2Pin] (puzzle: Same State 1) | – | 75.4 nM | – | – | – | – |
| AUUAAACAUGAGGAUCACCCAUGUAAUAAUAUGGGAGGAUAUGCGAAUUUAAUUAUUUAAGCAGAAGGCCUAAUUA [Mat - Same State 1 - D100] (puzzle: Same State 1) | – | 56 nM | – | – | – | – |
| AGGCUCAGACGAGGAUAUAUGUGGUCACAUGAGGAUCACCCAUGUCUCGAGCUUCGGCUCGAGGCAUAGAAGGUGUCUGAGCCA [SSNG2/5-C1] (Eterna round: R96, puzzle: Same State NG 2) | – | – | – | 115 nM | 42.5 nM | 25.7 nM |
| GUUAAACAUGAGGAUCACCCAUGUCAAUGUAGUCGAGGAUAUGGGCAGCUAUGAGGCGUACUAGAAGGCGAAGAGG [Mat - Same State 1 - Mod of JL - D11] (puzzle: Same State 1) | 121 nM | 236 nM | 334 nM | – | – | – |
| GGAGCCGGCCUAGGAUAUUUCAUAACAAAACAUGAGGAUCACCCAUGUAGGCCAGAAGGCCUUGGGAAGAAGGAGGUCGGCUCC [Loop Effect - C26] (Eterna round: R96, puzzle: Same State NG 2) | – | – | – | – | 18.9 nM | – |
| UGUUAGUAGUGAGGAUAUACAUACACCUUACAUGAGGAUCACCCAUGUUUUAAUAUUGAUAGUUAGUAGAAGGCACAUGAUUAU [JR_SSNG2_Sub043] (Eterna round: R96, puzzle: Same State NG 2) | – | – | – | 22.1 nM | 35.8 nM | 45.7 nM |
| UAGGCUGGUACAGGAUAUGCCGUAUUUUAGUCGGCAGAAGGGUGCUCACAUGAGGAUCACCCAUGUAUACAGCCAGAUCAUGUU [MOD JMF Solution 2] (Eterna round: R96, puzzle: Same State NG 1) | – | – | – | 132 nM | 107 nM | 43.2 nM |
| CUAAAACAUGAGGAUCACCCAUGUCAACAAAGUCGAGGAUAUGGGCAAAUAAAAUAAGAACCAGAAGGCGAAUAAA [salish99_SS1_r3_015] (puzzle: Same State 1) | 42.8 nM | 518 nM | 518 nM | – | – | – |
| UGGUAACAUGAGGAUCACCCAUGUCAAAUGAAUCGAGGAUAUGGGAAUUAACAAUAUAAACUAGAAGGCGAAUUUG [Altered State 1-7 - Jieux - Same State 1] (puzzle: Same State 1) | 144 nM | 284 nM | 290 nM | – | – | – |
| AGUCCAGCCUGAGCUGGACAAAAGCAUGUACAUGAGGAUCACCCAUGUCAUGUACAAGCUUUUUGCUCGACUUAAAA [Mat - hsa-mir-208a - Mod of JL - D10] (puzzle: Sensor for hsa-mir-208a) | 569 nM | 14.2 nM | 624 nM | – | – | – |
| GGUACCAUCACAGGAUAUGCUAUCCUUUGGGUAGCAGAAGGGUGAUACAUGAGGAUCACCCAUGUGGUGCCAGGGCGUGAGCCC [JL SSNG1 1.91] (Eterna round: R96, puzzle: Same State NG 1) | – | – | – | 901 nM | 44.5 nM | 331 nM |
| UAGAAACAUGAGGAUCACCCAUGUGGGUUAAACACAGGAUAUCAUGCCACACGAUAGGUAUGAGAAGGGUGACCGU [Sodion] (puzzle: Same State 1) | 234 nM | 79.5 nM | 53.3 nM | – | – | – |
| UGUAUACAUGAGGAUCACCCAUGUCAACGUAGUCGAGGAUAUGGGCAGCCGUGAGGCGUACCAGAAGGCGAAGAGG [JL-ss1-3.05 ViennaUCT mod] (puzzle: Same State 1) | 27.6 nM | 95.3 nM | 172 nM | – | – | – |
| GGUCCAGCCUGAGCUGGACGAAAGUAUGUACAUGAGGAUCACCCAUGUCAUGUAUAAGUUUUUUGUUUGUCUUGAAA [Sensorship 2 - Jieux - Sensor for hsa-mir-208a] (puzzle: Sensor for hsa-mir-208a) | 22.4 nM | 11.2 nM | 22.7 nM | – | – | – |
| ACGCAGCUGGGUGAGGAUAUUGGUGGUACAACAUGAGGAUCACCCAUGUCCGAAGCUCGGACCCUCGAGAAGGCGCCCGGCUGCG [Soinraesar Omei Mod 5] (puzzle: Same State 2) | 122 nM | 17.2 nM | 62 nM | – | – | – |
